Laboratory results: patent US20060270832A1

Biological target: human noradrenaline transporter (hNET) (human) (UniProt P23975)
Test: cell-based or functional assay

human noradrenaline transporter (hNET) (human), sequence (P23975 whole entry): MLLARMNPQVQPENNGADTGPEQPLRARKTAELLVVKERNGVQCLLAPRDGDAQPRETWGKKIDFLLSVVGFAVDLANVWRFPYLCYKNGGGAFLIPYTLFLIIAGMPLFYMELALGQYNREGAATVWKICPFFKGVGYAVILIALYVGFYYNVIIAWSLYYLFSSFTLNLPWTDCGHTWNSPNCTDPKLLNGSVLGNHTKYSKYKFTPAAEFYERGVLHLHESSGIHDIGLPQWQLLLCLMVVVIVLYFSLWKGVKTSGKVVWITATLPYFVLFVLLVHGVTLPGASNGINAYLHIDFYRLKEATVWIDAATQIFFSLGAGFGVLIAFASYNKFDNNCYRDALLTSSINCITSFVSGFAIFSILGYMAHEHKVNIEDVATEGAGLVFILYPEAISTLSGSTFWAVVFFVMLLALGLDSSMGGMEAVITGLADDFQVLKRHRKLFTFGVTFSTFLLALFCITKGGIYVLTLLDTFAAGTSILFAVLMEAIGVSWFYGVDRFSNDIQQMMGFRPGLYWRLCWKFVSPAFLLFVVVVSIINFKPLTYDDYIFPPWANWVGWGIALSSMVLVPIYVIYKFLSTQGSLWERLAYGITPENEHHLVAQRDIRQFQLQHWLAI

Work on χ-MrIA (peptide) yielded an Av IC50, inhibition of NA uptake via hNET (log M (unit not given)) of -6.3.
